Source: IntAct's records for PubMed 31515488

B1: Putative pre-mRNA-splicing factor ATP-dependent RNA helicase DHX32 (Homo sapiens), Q7L7V1 (parent)
chain: MEEEGLECPNSSSEKRYFPESLDSSDGDEEEVLACEDLELNPFDGLPYSSRYYKLLKEREDLPIWKEKYSFMENLLQNQIVIVSGDAKCGKSAQVPQWCAEYCLSIHYQHGGVICTQVHKQTVVQLALRVADEMDVNIGHEVGYVIPFENCCTNETILRYCTDDMLQREMMSNPFLGSYGVIILDDIHERSIATDVLLGLLKDVLLARPELKLIINSSPHLISKLNSYYGNVPVIEVKNKHPVEVVYLSEAQKDSFESILRLIFEIHHSGEKGDIVVFLACEQDIEKVCETVYQGSNLNPDLGELVVVPLYPKEKCSLFKPLDETEKRCQVYQRRVVLTTSSGEFLIWSNSVRFVIDVGVERRKVYNPRIRANSLVMQPISQSQAEIRKQILGSSSSGKFFCLYTEEFASKDMTPLKPAEMQEANLTSMVLFMKRIDIAGLGHCDFMNRPAPESLMQALEDLDYLAALDNDGNLSEFGIIMSEFPLDPQLSKSILASCEFDCVDEVLTIAAMVTAPNCFSHVPHGAEEAALTCWKTFLHPEGDHFTLISIYKAYQDTTLNSSSEYCVEKWCRDYFLNCSALRMADVIRAELLEIIKRIELPYAEPAFGSKENTLNIKKALLSGYFMQIARDVDGSGNYLMLTHKQVAQLHPLSGYSITKKMPEWVLFHKFSISENNYIRITSEISPELFMQLVPQYYFSNLPPSESKDILQQVVDHLSPVSTMNKEQQMCETCPETEQRCTLQ
partner: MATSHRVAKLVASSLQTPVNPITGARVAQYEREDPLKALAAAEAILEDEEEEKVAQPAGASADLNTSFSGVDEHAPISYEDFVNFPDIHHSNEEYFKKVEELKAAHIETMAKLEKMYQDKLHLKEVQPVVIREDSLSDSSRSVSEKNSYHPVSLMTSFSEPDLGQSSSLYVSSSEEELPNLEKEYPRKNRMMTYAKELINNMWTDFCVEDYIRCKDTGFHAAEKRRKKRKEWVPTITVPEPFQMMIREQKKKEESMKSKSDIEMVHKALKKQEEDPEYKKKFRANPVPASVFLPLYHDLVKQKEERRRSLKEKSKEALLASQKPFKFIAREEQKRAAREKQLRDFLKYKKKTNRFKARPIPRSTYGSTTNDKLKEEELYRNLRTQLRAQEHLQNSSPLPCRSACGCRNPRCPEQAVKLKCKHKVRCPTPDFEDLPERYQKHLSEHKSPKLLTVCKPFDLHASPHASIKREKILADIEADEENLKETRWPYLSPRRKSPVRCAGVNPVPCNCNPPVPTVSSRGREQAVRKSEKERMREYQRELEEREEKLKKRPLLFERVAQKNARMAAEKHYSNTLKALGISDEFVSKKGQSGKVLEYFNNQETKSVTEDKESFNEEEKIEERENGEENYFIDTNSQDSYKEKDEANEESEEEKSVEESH
B2: Pre-B-cell leukemia transcription factor 4 (Homo sapiens), Q9BYU1 (parent)
chain: MAAPPRPAPSPPAPRRLDTSDVLQQIMAITDQSLDEAQARKHALNCHRMKPALFSVLCEIKEKTVVSIRGIQDEDPPDAQLLRLDNMLLAEGVCRPEKRGRGGAVARAGTATPGGCPNDNSIEHSDYRAKLSQIRQIYHSELEKYEQACREFTTHVTNLLQEQSRMRPVSPKEIERMVGAIHGKFSAIQMQLKQSTCEAVMTLRSRLLDARRKRRNFSKQATEVLNEYFYSHLNNPYPSEEAKEELARKGGLTISQVSNWFGNKRIRYKKNMGKFQEEATIYTGKTAVDTTEVGVPGNHASCLSTPSSGSSGPFPLPSAGDAFLTLRTLASLQPPPGGGCLQSQAQGSWQGATPQPATASPAGDPGSINSSTSN
B3: Keratin, type II cytoskeletal 79 (Homo sapiens), Q5XKE5 (parent)
chain: MRSSVSRQTYSTKGGFSSNSASGGSGSQARTSFSSVTVSRSSGSGGGAHCGPGTGGFGSRSLYNLGGHKSISVSVAGGALLGRALGGFGFGSRAFMGQGAGRQTFGPACPPGGIQEVTVNQSLLTPLHVEIDPEIQRVRTQEREQIKTLNNKFASFIDKVRFLEQQNKVLETKWALLQEQGQNLGVTRNNLEPLFEAYLGSMRSTLDRLQSERGRLDSELRNVQDLVEDFKNKYEDEINKHTAAENEFVVLKKDVDAAYMGRMDLHGKVGTLTQEIDFLQQLYEMELSQVQTHVSNTNVVLSMDNNRNLDLDSIIAEVKAQYELIAQRSRAEAEAWYQTKYEELQVTAGKHGDNLRDTKNEIAELTRTIQRLQGEADAAKKQCQQLQTAIAEAEQRGELALKDAQKKLGDLDVALHQAKEDLTRLLRDYQELMNVKLALDVEIATYRKLLESEESRMSGECPSAVSISVTGNSTTVCGGGAASFGGGISLGGSGGATKGGFSTNVGYSTVKGGPVSAGTSILRKTTTVKTSSQRY
partner: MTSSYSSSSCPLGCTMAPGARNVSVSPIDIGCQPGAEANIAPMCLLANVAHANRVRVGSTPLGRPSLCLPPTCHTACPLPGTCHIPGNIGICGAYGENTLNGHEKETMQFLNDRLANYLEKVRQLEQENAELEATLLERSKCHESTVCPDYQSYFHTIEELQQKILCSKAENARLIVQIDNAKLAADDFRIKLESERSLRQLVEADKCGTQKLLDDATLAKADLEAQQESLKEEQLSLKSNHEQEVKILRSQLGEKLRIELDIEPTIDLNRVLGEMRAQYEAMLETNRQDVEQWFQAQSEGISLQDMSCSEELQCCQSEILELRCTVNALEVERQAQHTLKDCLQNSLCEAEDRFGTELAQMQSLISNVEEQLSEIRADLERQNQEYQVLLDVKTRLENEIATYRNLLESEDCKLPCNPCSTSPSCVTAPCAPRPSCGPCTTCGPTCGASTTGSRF

Variants of: B1
Conditions: with FAM161A

Row | effect of a mutation on the interaction | Variant
1 | with no effect | D301A

Variants of: B2
Conditions: with tfp11_human TFIP11, Q9UBB9
Sequence of tfp11_human TFIP11, Q9UBB9 (Q9UBB9 whole entry): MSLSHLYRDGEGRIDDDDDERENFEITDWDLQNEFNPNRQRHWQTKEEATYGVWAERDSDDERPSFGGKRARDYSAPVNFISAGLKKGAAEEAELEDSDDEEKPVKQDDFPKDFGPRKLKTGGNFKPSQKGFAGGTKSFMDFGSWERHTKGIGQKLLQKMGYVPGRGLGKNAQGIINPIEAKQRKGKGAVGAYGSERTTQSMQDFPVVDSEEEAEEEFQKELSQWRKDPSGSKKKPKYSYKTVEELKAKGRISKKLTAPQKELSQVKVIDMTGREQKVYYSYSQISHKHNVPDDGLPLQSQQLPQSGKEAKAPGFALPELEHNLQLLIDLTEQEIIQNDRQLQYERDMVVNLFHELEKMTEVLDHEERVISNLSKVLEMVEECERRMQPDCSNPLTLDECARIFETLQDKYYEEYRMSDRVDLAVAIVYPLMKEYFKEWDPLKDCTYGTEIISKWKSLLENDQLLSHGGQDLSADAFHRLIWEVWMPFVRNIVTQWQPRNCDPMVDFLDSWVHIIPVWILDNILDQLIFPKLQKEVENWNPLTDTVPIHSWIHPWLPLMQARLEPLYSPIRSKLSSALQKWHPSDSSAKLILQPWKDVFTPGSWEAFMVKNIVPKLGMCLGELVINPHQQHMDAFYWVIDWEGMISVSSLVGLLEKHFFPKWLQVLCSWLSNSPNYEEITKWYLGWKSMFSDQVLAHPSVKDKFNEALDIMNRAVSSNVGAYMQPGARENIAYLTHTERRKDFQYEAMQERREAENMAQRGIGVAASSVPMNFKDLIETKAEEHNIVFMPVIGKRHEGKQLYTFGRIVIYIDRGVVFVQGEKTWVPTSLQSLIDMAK

Row | effect of a mutation on the interaction | Variant
2 | with no effect | MAAPPRPAPSPPAPRRLDTSDVLQQIMAITDQSLDEAQARKHALNCHRMKPALFSVLCEIKEKTVVSIRGIQDEDPPDAQLLRLDNMLLAEGVCRPEKRGRGGAVARAGTATPGGCPNDNSIEHSDYRAKLSQIRQIYHSELEKYEQACREFTTHVTNLLQEQSRMRPVSPKEIERMVGAIHGKFSAIQMQLKQSTCEAVMTLRSRLLDARRKRRNFSKQATEVLNEYFYSHLNNPYPSEEAKEELARKGGLTISQVSNWFGNKRIRYKKNMGKFQEEATIYMGKTAVDTTEVGVPGNHASCLSTPSSGSSGPFPLPSAGDAFLTLRTLASLQPPPGGGCLQSQAQGSWQGATPQPATASPAGDPGSINSSTSN [T283M]
3 | with no effect | MAAPPRPAPSPPAPRRLDTSDVLQQIMAITDQSLDEAQARKHALNCHRMKPALFSVLCEIKEKTVVSIRGIQDEDPPDAQLLRLDNMLLAEGVCRPEKRGRGGAVARAGTATPGGCPNDNSIEHSDYRAKLSQIRQIYHSELEKYEQACREFTMHVTNLLQEQSRMRPVSPKEIERMVGAIHGKFSAIQMQLKQSTCEAVMTLRSRLLDARRKRRNFSKQATEVLNEYFYSHLNNPYPSEEAKEELARKGGLTISQVSNWFGNKRIRYKKNMGKFQEEATIYTGKTAVDTTEVGVPGNHASCLSTPSSGSSGPFPLPSAGDAFLTLRTLASLQPPPGGGCLQSQAQGSWQGATPQPATASPAGDPGSINSSTSN [T154M]
4 | with no effect | MAAPPRPAPSPPAPRRLDTSDVLQQIMAITDQSLDEAQARKHALNCHRMKPALFSVLCEIKEKTVVSIRGIQDEDPPDAQLLRLDNMLLAEGVCRPEKRGRGGAVARAGTATPGGCPNDNSIEHSDYRAKLSQIRQIYHSELEKYEQACREFTTHVTNLLQEQSRMRPVSPKEIERMVGAIHGKFSAIQMQLKQSTCEAVMTLRSRLLDARRKRRNFSKQATEVLNEYFYSHLNNPYPSEEAKEELARKGGLTISQVSNWFGNKRIRYKKNMGKFQEEATIYTGKTAVDTTEVGVPGNHASCLSTPSSGSSGPFPLPSAGDAFLTLQTLASLQPPPGGGCLQSQAQGSWQGATPQPATASPAGDPGSINSSTSN [R327Q]

Variants of: B3
Conditions: with krt38_human KRT38, O76015

Row | effect of a mutation on the interaction | Variant
5 | with no effect | MRSSVSRQTYSTKGGFSSNSASGGSGSQACTSFSSVTVSRSSGSGGGAHCGPGTGGFGSRSLYNLGGHKSISVSVAGGALLGRALGGFGFGSRAFMGQGAGRQTFGPACPPGGIQEVTVNQSLLTPLHVEIDPEIQRVRTQEREQIKTLNNKFASFIDKVRFLEQQNKVLETKWALLQEQGQNLGVTRNNLEPLFEAYLGSMRSTLDRLQSERGRLDSELRNVQDLVEDFKNKYEDEINKHTAAENEFVVLKKDVDAAYMGRMDLHGKVGTLTQEIDFLQQLYEMELSQVQTHVSNTNVVLSMDNNRNLDLDSIIAEVKAQYELIAQRSRAEAEAWYQTKYEELQVTAGKHGDNLRDTKNEIAELTRTIQRLQGEADAAKKQCQQLQTAIAEAEQRGELALKDAQKKLGDLDVALHQAKEDLTRLLRDYQELMNVKLALDVEIATYRKLLESEESRMSGECPSAVSISVTGNSTTVCGGGAASFGGGISLGGSGGATKGGFSTNVGYSTVKGGPVSAGTSILRKTTTVKTSSQRY [R30C]
6 | disrupting interaction strength | MRSSVSRQTYSTKGGFSSNSASGGSGSQARTSFSSVTVSRSSGSGGGAHCGPGTGGFGSRSLYNLGGHKSISVSVAGGALLGRALGGFGFGSRAFMGQGAGRQTFGPACPPGGIQEVTVNQSLLTPLHVEIDPEIQRVRTQEREQIKTLNNKFASFIDKVRFLEQQNKVLETKWALLQEQGQNLGVTRNNLEPLFEAYLGSMRSTLDRLQSEWGRLDSELRNVQDLVEDFKNKYEDEINKHTAAENEFVVLKKDVDAAYMGRMDLHGKVGTLTQEIDFLQQLYEMELSQVQTHVSNTNVVLSMDNNRNLDLDSIIAEVKAQYELIAQRSRAEAEAWYQTKYEELQVTAGKHGDNLRDTKNEIAELTRTIQRLQGEADAAKKQCQQLQTAIAEAEQRGELALKDAQKKLGDLDVALHQAKEDLTRLLRDYQELMNVKLALDVEIATYRKLLESEESRMSGECPSAVSISVTGNSTTVCGGGAASFGGGISLGGSGGATKGGFSTNVGYSTVKGGPVSAGTSILRKTTTVKTSSQRY [R213W]
7 | with no effect | MRSSVSRQTYSTKGGFSSNSASGGSGSQARTSFSSVTVSRSSGSGGGAHCGPGTGGFGSRSLYNLGGHKSISVSVAGGALLGRALGGFGFGSRAFMGQGAGRQTFGPACPPGGIQEVTVNQSLLTPLHVEIDPEIQRVRTQEREQIKTLNNKFASFIDKVRFLEQQNKVLETKWALLQEQGQNLGVTRNNLEPLFEAYLGSMRSTLDRLQSERGRLDSELRNVQDLVEDFKNKYEDEINKHTAAENEFVVLKKDVDAAYMGRMDLRGKVGTLTQEIDFLQQLYEMELSQVQTHVSNTNVVLSMDNNRNLDLDSIIAEVKAQYELIAQRSRAEAEAWYQTKYEELQVTAGKHGDNLRDTKNEIAELTRTIQRLQGEADAAKKQCQQLQTAIAEAEQRGELALKDAQKKLGDLDVALHQAKEDLTRLLRDYQELMNVKLALDVEIATYRKLLESEESRMSGECPSAVSISVTGNSTTVCGGGAASFGGGISLGGSGGATKGGFSTNVGYSTVKGGPVSAGTSILRKTTTVKTSSQRY [H266R]
8 | with no effect | MRSSVSRQTYSTKGGFSSNSASGGSGSQARTSFSSVTVSRSSGSGGGAHCGPGTGGFGSRSLYNLGGHKSISVSVAGGALLGRALGGFGFGSRAFMGQGAGRQTFGPACPPGGIQEVTVNQSLLTPLHVEIDPEIQRVRTQEREQIKTLNNKFASFIDKVQFLEQQNKVLETKWALLQEQGQNLGVTRNNLEPLFEAYLGSMRSTLDRLQSERGRLDSELRNVQDLVEDFKNKYEDEINKHTAAENEFVVLKKDVDAAYMGRMDLHGKVGTLTQEIDFLQQLYEMELSQVQTHVSNTNVVLSMDNNRNLDLDSIIAEVKAQYELIAQRSRAEAEAWYQTKYEELQVTAGKHGDNLRDTKNEIAELTRTIQRLQGEADAAKKQCQQLQTAIAEAEQRGELALKDAQKKLGDLDVALHQAKEDLTRLLRDYQELMNVKLALDVEIATYRKLLESEESRMSGECPSAVSISVTGNSTTVCGGGAASFGGGISLGGSGGATKGGFSTNVGYSTVKGGPVSAGTSILRKTTTVKTSSQRY [R161Q]
